Experiments:
[1] = target: T1, GM-CSF (immobilized on the SPR sensor chip); experiment: SPR (Biacore 3000, GM-CSF immobilized on CM5 chip); antibody 5.4 mg/ml in formulations 5-16 of Table 1 (all with mannitol or sorbitol) after 14 days at 55 C
T1 construct: also called immobilized GM-CSF; Granulocyte-macrophage colony stimulating factor
Protocol: (§1) The surface plasmon resonance (SPR) method was established to determine the degree of antibody binding activity to immobilized GM-CSF (Biacore 3000/CM5 sensor chip/HBS-EP running buffer). The SPR method was qualified by performing a nine-point range test, from which precision (six replicate injections) and linearity (triplicate standard curves) were determined and tested.
(§2) […] Previous studies indicated stabilizing effects of: 20 mM acetate pH 5; 20 mM histidine pH 6; 250 mM glutamic acid; 250 mM threonine, 6% (w/v) sorbitol and 6% (w/v) mannitol. […] Antibody in 1×PBS was included as a control. At T0, T7 and T14 (days), samples were analyzed by SE-HPLC and SPR.

[2] = target: T1, GM-CSF (immobilized on the SPR sensor …); experiment: SPR (Biacore 3000, GM-CSF immobilized on CM5 chip); antibody 5.4 mg/ml in 20 mM histidine + 250 mM threonine after 14 days at 55 C
[3] = target: T1, GM-CSF (immobilized on the SPR sensor …); experiment: SPR (Biacore 3000, GM-CSF immobilized on CM5 chip); antibody 5.4 mg/ml in 20 mM histidine + 250 mM glutamic acid after 14 days at 55 C
Protocol: as §1, §2

[4] = target: T1, GM-CSF (immobilized on the SPR sensor …); experiment: SPR (Biacore 3000, GM-CSF immobilized on CM5 chip); antibody 5.4 mg/ml in 20 mM acetate + 250 mM threonine after 14 days at 55 C
Protocol: as §1, §2

[5] = target: T1, GM-CSF (immobilized on the SPR sensor …); experiment: SPR (Biacore 3000, GM-CSF immobilized on CM5 chip); antibody 5.4 mg/ml in 1xPBS after 14 days at 55 C
Protocol: as §1, §2

[6] = target: T1, GM-CSF (immobilized on the SPR sensor …); experiment: SPR (Biacore 3000, GM-CSF immobilized on CM5 chip); antibody 5.4 mg/ml in 20 mM acetate + 250 mM glutamic acid after 14 days at 55 C
Protocol: as §1, §2

B1: human monoclonal IgG1 antibody that binds to and neutralizes human GM-CSF (antibody, V domains shown)
VH: QVQLVQSGAEVKKPGASVKVSCKAFGYPFTDYLLHWVRQAPGQGLEWVGWLNPYSGDTNYAQKFQGRVTMTRDTSISTAYMELSRLRSDDTAVYYCTRTTLISVYFDYWGQGTMVTVSS
VL: DIQMTQSPSSVSASVGDRVTIACRASQNIRNILNWYQQRPGKAPQLLIYAASNLQSGVPSRFSGSGSGTDFTLTINSLQPEDFATYYCQQSYSMPRTFGGGTKLEIKR
notes: also called the antibody; anti-GM-CSF antibody
binding activity relative to T0 [1]: > 93% | binding activity relative to T0 [2]: 85% | binding activity relative to T0 [3]: 91% | binding activity relative to T0 [4]: 26% | binding activity relative to T0 [5]: 62% | binding activity relative to T0 [6]: 19%

Source: US20180207278A1 (Amgen, published 2018)
